This experiment deals with β-amyloid1-42 (UniProt P05067). The experiment in a line: cell-based or functional assay.

Consider 1 substance from patent publication US20030092613A1, “Alpha7 nicotinic receptor peptides as ligands for beta amyloid peptides” (priority 2000, published 2003).

cyclic peptide (Ac)ECCK-amide displayed an ACh rel % Inh @ 100 µM of 87%.
